What is called Kd is the free concentration of one partner at which half of the binding sites on the other are occupied at equilibrium, for simple one-to-one binding.

Nine molecules from patent publication US20220112276A1 (Janssen / Centocor, published 2022) can be followed below.

Substitutions are numbered along the chain they refer to.

Sequences and labels used below:
B1: 01E11R2 VHH Mono-Fc (Fc fusion)
chain: QVQLVESGGGLVQTGGSLRLSCAASGLTFSSYTMGWFRQAPGKEREFVAAISWGGASTWYADSVKGRFTISRDNAKTMVYLQMNGLKPEDTAVYYCAKGRNNGYATAVRAYDYWGQGTLVTVSSSPAPELLGGPSVFLFPPKPKDTLMISRTPEVTCVVVDVSHEDPEVKFNWYVDGVEVHNAKTKPREEQYNSTYRVVSVLTVLHQDWLNGKEYKCKVSNKALPAPIEKTISKAKGQPREPQVYTKPPSREEMTKNQVSLSCLVKGFYPSDIAVEWESNGQPENNYKTTVPVLDSDGSFRLASYLTVDKSRWQQGNVFSCSVMHEALHNHYTQKSLSLSPGK
B2: 02H11R3 VHH Mono-Fc (Fc fusion)
chain: EVQLVESGGGSVQAGGSLRLSCAASGRTFSNYAMGWFRQAPGKEREFVAGISRSGGSTYSADSVKGRFTISRDNAKNTVYLQMNSLKPEDTAVYYCAADGLDYALGFRGDYWGQGTQVTVSSSPAPELLGGPSVFLFPPKPKDTLMISRTPEVTCVVVDVSHEDPEVKFNWYVDGVEVHNAKTKPREEQYNSTYRVVSVLTVLHQDWLNGKEYKCKVSNKALPAPIEKTISKAKGQPREPQVYTKPPSREEMTKNQVSLSCLVKGFYPSDIAVEWESNGQPENNYKTTVPVLDSDGSFRLASYLTVDKSRWQQGNVFSCSVMHEALHNHYTQKSLSLSPGK
B3: 01G03R3L VHH Mono-Fc (Fc fusion)
chain: B2 chain with E1Q, Q117L
B4: 02H04R3 VHH Mono-Fc (Fc fusion)
chain: EVQLVESGGGLVQPGGRLRLSCAASGSIFSIRDMGWYRQAPGKQRELVAIFARGGSTHYADSVKGRFTISRDNAKNTVYLQMNSLEPEDTAAYYCNAEVATMIQPGFRDYWGQGTQVTVSSSPAPELLGGPSVFLFPPKPKDTLMISRTPEVTCVVVDVSHEDPEVKFNWYVDGVEVHNAKTKPREEQYNSTYRVVSVLTVLHQDWLNGKEYKCKVSNKALPAPIEKTISKAKGQPREPQVYTKPPSREEMTKNQVSLSCLVKGFYPSDIAVEWESNGQPENNYKTTVPVLDSDGSFRLASYLTVDKSRWQQGNVFSCSVMHEALHNHYTQKSLSLSPGK
B5: 01A03R3L VHH Mono-Fc (Fc fusion)
chain: B4 chain with R17Q, F29A, I31V, G35A, E46G, S56T, I103F, Q113R, Q116L
B6: 02B03R3 VHH Mono-Fc (Fc fusion)
chain: B4 chain with P14S, R17Q, F29A, G35A, S56T, I103F, Q113R, Q116L
B7: 02D06R3 VHH Mono-Fc (Fc fusion)
chain: B4 chain with E1Q, G35A, L47W, F51A, S84T
B8: 01C03R3L VHH Mono-Fc (Fc fusion)
chain: B4 chain with E1Q, Q116L
B9: 01F05R2LS VHH Mono-Fc (Fc fusion)
chain: QVQLVESGGGLVQAGGSLRLSCAASGSIFAINGMGWYRQAPGKQRELVAVITRGGSTNYADSVKGRFTISRDNAKNTVSLQMNSLKPEDTAVYYCAATGVLAGWAAGDGMDYWGKGTLVTVSSSPAPELLGGPSVFLFPPKPKDTLMISRTPEVTCVVVDVSHEDPEVKFNWYVDGVEVHNAKTKPREEQYNSTYRVVSVLTVLHQDWLNGKEYKCKVSNKALPAPIEKTISKAKGQPREPQVYTKPPSREEMTKNQVSLSCLVKGFYPSDIAVEWESNGQPENNYKTTVPVLDSDGSFRLASYLTVDKSRWQQGNVFSCSVMHEALHNHYTQKSLSLSPGK

T3 sequence (A0A2K5WMU9 entry or part of it): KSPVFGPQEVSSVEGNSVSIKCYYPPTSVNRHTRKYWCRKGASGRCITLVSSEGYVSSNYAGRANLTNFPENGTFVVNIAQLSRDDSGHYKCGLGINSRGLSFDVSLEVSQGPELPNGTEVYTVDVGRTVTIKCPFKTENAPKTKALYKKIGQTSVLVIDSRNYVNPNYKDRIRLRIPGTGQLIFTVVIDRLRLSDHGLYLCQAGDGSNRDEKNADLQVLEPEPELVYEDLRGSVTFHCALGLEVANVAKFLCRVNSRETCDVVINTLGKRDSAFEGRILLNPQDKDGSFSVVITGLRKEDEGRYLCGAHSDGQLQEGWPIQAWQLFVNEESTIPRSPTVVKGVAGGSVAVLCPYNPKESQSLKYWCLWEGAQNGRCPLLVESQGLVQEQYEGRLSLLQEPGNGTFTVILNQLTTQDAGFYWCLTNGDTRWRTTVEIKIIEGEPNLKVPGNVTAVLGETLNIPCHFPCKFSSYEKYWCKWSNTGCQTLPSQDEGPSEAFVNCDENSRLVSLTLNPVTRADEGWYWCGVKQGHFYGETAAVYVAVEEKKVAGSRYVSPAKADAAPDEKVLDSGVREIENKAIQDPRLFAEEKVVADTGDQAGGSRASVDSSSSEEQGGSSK

The target of the first assay is T1, human pIgR extracellular domain (ECD) (human, UniProt P01833 19-638).
T1 construct: Bought from R&D Systems (Cat 2717-PG-050); also called hpIgR ECD
T1 sequence (P01833 other isoform, or with tags, fused parts or gaps): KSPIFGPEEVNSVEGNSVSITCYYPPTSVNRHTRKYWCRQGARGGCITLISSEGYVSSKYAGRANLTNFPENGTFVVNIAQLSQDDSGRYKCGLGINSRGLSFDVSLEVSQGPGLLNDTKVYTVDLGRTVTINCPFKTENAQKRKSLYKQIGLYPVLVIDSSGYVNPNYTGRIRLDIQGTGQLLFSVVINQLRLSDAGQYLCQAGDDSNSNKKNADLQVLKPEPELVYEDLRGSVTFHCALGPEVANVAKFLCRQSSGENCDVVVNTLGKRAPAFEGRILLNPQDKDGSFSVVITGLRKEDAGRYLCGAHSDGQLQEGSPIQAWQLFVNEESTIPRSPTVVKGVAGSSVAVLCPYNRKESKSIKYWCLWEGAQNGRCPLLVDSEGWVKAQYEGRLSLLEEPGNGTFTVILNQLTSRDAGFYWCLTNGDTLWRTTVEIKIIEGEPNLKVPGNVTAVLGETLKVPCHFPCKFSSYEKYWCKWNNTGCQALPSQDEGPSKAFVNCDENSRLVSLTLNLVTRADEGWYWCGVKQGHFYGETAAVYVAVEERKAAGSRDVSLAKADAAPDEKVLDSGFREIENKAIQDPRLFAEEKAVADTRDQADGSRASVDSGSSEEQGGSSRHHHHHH
Briefly: SPR.
Take B1: the binding result is “no binding (tested: 30 nM)”.
B2: the binding result was “no binding (tested: 30 nM)”.
For B3, the binding result is listed as “no binding (tested: 30 nM)”.
As to B4, the binding result is “no binding (tested: 30 nM)”.
The same measure, in the same setting: then B5, with “no binding (tested: 30 nM)”.
Same read-out and setting: in the case of B6 it was “no binding (tested: 30 nM)”.
As for B7, the binding result was “no binding (tested: 30 nM)”.
Turning to B8, the binding result is reported as “no binding (tested: 30 nM)”.
In the case of B9, the binding result is given as “no binding (tested: 30 nM)”.

The target in a further assay is T2, mouse pIgR extracellular domain (ECD) (mouse, UniProt O70570 19-645).
T2 construct: Bought from R&D Systems (Cat 2800-PG-050); also called mpIgR ECD
T2 sequence: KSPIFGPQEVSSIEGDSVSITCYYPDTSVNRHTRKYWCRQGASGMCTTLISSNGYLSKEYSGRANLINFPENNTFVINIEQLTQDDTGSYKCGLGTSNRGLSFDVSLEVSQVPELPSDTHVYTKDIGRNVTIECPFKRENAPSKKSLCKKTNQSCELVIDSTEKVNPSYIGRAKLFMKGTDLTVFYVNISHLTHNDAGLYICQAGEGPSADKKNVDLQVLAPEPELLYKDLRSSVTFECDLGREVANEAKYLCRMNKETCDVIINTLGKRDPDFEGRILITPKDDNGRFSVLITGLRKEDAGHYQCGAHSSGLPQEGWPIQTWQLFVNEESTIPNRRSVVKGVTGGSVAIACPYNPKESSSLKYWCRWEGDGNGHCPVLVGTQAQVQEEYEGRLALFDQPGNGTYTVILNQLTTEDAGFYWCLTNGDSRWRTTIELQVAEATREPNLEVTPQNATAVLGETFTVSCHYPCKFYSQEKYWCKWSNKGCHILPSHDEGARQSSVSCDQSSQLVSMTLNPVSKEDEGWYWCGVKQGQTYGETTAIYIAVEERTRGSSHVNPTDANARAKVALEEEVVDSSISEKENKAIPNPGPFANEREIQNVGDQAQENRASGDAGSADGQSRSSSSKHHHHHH
Briefly: SPR, VHH captured by anti-Fc, ECD analyte. The method in brief: (§1)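 Anti-human Fc surface captured VHH at 0.5 ug/ml (~200-300 RU); running buffer HBSP with 100 ug/ml BSA, 30 μL/min. Single-cycle kinetics with ECD injected low to high from 30 nM in 3-fold dilutions, dissociation 30 min. Double-referenced data globally fit to 1:1 Langmuir model for kon, koff, KD.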
(In general: SPR reads the build-up and loss of mass on a sensor chip optically.)
Regarding B1, the affinity, expressed as Kd, was 20.6 nM.
The same measure, in the same setting: in the case of B2 it was 0.71 nM; in that of B3, 0.796 nM.
B4: the affinity, expressed as Kd, was 46.6 nM.
In turn, B5 gave a Kd of 6.06 nM.
Same read-out and setting: in the case of B6 it was 2.76 nM; in that of B7, 1.34 nM.
The molecule B8 had a Kd of 33.1 nM.
Still for that read-out and setting: in the case of B9 it was 3.98 nM.

The next assay has as its target T3, cynomolgus monkey pIgR extracellular domain (cynomolgus monkey, UniProt A0A2K5WMU9 19-638).
T3 construct: extracellular domain
Briefly: SPR, VHH captured by anti-Fc, ECD analyte. In a few lines:
as §1
With B1, binding was characterised by a dissociation constant (Kd) of 86.1 nM.
Still for that read-out and setting: in the case of B9 it was 2.72 nM.

The target of a further assay is T4, rat pIgR extracellular domain (rat, UniProt P15083 19-643).
T4 construct: extracellular domain
T4 sequence (looked up): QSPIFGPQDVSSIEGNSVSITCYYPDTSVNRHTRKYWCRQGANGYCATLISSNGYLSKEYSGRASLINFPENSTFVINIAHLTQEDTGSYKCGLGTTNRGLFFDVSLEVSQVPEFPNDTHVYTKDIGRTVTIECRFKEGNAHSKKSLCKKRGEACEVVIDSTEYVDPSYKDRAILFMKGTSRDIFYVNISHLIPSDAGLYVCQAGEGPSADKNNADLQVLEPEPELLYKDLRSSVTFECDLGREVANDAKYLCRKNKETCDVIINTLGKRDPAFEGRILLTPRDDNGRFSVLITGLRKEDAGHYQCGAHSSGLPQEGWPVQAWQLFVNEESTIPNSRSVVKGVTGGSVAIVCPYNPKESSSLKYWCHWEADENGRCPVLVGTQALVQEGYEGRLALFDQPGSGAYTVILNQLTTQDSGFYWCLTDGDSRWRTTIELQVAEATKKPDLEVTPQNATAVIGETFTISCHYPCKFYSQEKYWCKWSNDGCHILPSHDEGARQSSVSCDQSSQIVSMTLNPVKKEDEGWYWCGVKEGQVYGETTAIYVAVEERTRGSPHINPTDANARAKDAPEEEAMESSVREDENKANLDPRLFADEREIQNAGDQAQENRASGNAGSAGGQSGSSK
Briefly: SPR, VHH captured by anti-Fc, ECD analyte. In a few lines:
as §1
Consider B1, for which binding was put at a Kd of 22.5 nM.
Still for that read-out and setting: then B2, with 1.74 nM; and B3, with 1.61 nM.
B4 had a Kd of 25.4 nM.
Same read-out and setting: in the case of B5 it was 2.91 nM; in that of B6, 1.32 nM.
Regarding B7, the Kd was found to be 0.448 nM.
On to B8, for which binding was characterised by a dissociation constant (Kd) of 16 nM.
